Experimental data as given in article PMC3864954.

Experiments:
Test in all cases: ELISA; APP fragment (12.2 nM, 50 µL/well) plated at 4°C overnight; p75^NTR ECD-Fc or IgG-Fc added at the indicated concentrations for 2 h at room temperature; detected by anti-human IgG-Fc; EC50 from sigmoid dose-response curve
[1] = target: sAPPβ, recombinant, His-tagged
[2] = target: Soluble β-amyloid Precursor Protein Alpha (sAPPα), recombinant, His-tagged (UniProt P05067)
[3] = target: C-sAPPα (sAPPα 304–612), recombinant, His-tagged (UniProt P05067)

With “recombinant p75^NTR extracellular domain fused to human Fc (p75^NTR ECD-Fc) chimera protein (from UniProt P08138 29-250) (Fc fusion)” the EC50 [1] was 120 nM, the EC50 [2] was 90 nM and the EC50 [3] was 150 nM.
